T1: Kip1 (28-79), 52-amino acid peptide with a C-terminal hexahistidine tag
T1 chain: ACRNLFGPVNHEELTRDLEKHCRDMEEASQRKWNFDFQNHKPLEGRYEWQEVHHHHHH

T2: recombinant mouse Kip1 with a C-terminal hexahistidine sequence (expressed in BL21(DE3) bacteria from pET21a)
T2 chain: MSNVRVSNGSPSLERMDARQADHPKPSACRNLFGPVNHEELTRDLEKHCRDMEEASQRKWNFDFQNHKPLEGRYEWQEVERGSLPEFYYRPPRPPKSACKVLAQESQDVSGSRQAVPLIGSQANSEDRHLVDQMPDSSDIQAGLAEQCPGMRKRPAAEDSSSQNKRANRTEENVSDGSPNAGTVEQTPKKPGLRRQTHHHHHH

T3: p27 protein, the 27 kD cyclin E-Cdk2 binding protein of Mv1Lu mink epithelial cells (endogenous)
T3 chain: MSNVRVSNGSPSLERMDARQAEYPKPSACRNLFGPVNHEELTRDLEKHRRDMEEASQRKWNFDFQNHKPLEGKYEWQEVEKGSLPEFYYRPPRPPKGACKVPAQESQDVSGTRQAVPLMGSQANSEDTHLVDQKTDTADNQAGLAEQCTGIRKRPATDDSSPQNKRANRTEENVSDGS


Key:
[1] = target: T1, Kip1 (28-79), 52-amino acid peptide …
[2] = target: T2, recombinant mouse Kip1 with a …
[3] = target: T3, p27 protein, the 27 kD cyclin E-Cdk2 …

| Protein | Rb phosphorylation [1] | Rb kinase activity (phosphorylation of a GST-Rb fusion product) [2] | activation of Cdk2 by cyclin E in extracts (cyclin E-associated histone H1 kinase activity) [3] | lowering of the cyclin E threshold for Cdk2 activation (cyclin E-associated histone H1 kinase activity) [3] |
| --- | --- | --- | --- | --- |
| cyclin D2-Cdk4 complex (baculovirus produced, co-infected Sf9 cells) (protein) chain 1: MELLCCEVDPVRRAVPDRNLLEDRVLQNLLTIEERYLPQCSYFKCVQKDIQPYMRRMVATWMLEVCEEQKCEEEVFPLAMNYLDRFLAGVPTPKTHLQLLGAVCMFLASKLKETIPLTAEKLCIYTDNSVKPQELLEWELVVLGKLKWNLAAVTPHDFIEHILRKLPQQKEKLSLIRKHAQTFIALCATDFKFAMYPPSMIATGSVGAAICGLQQDDEVNTLTCDALTELLAKITHTDVDCLKACQEQIEALLLNSLQQFRQEQHNAGSKSVEDPDQATTPTDVRDVDL chain 2: MAATRYEPVAEIGVGAYGTVYKARDPHSGHFVALKSVRVPNGGAAGGGLPVSTVREVALLRRLEAFEHPNVVRLMDVCATSRTDRDIKVTLVFEHIDQDLRTYLDKAPPPGLPVETIKDLMRQFLSGLDFLHANCIVHRDLKPENILVTSNGTVKLADFGLARIYSYQMALTPVVVTLWYRAPEVLLQSTYATPVDMWSVGCIFAEMFRRKPLFCGNSEADQLGKIFDLIGLPPEDDWPREVSLPRGAFAPRGPRPVQSVVPEMEESGAQLLLEMLTFNPHKRISAFRALQHSYLHKEESDAE | inhibited cyclin E-Cdk2 or cyclin D2:Cdk4 less effectively | Addition of Kip1 to cyclin E-Cdk2, cyclin A-Cdk2 or cyclin D2-Cdk4 complexes inhibited their ability to phosphorylate a GST-Rb fusion product | Addition of cyclin D2-Cdk4 complexes, but neither subunit alone, to extracts from contact inhibited and TGF-β arrested cells allowed cyclin E to activate Cdk2 to a level equivalent to that observed in extracts from proliferating cells | – |
| cyclin D3-Cdk4 complex (baculoviral, co-infected Sf9 cells) (protein) chain 1: MELLCCEGTRHAPRAGPDPRLLGDQRVLQSLLRLEERYVPRASYFQCVQKEIKPHMRKMLAYWMLEVCEEQRCEEDVFPLAMNYLDRYLSCVPTRKAQLQLLGTVCLLLASKLRETTPLTIEKLCIYTDQAVAPWQLREWEVLVLGKLKWDLAAVIAHDFLALILHRLSLPSDRQALVKKHAQTFLALCATDYTFAMYPPSMIATGSIGAAVLGLGACSMSADELTELLAGITGTEVDCLRACQEQIEAALRESLREAAQTAPSPVPKAPRGSSSQGPSQTSTPTDVTAIHL chain 2: MAATRYEPVAEIGVGAYGTVYKARDPHSGHFVALKSVRVPNGGAAGGGLPVSTVREVALLRRLEAFEHPNVVRLMDVCATSRTDRDIKVTLVFEHIDQDLRTYLDKAPPPGLPVETIKDLMRQFLSGLDFLHANCIVHRDLKPENILVTSNGTVKLADFGLARIYSYQMALTPVVVTLWYRAPEVLLQSTYATPVDMWSVGCIFAEMFRRKPLFCGNSEADQLGKIFDLIGLPPEDDWPREVSLPRGAFAPRGPRPVQSVVPEMEESGAQLLLEMLTFNPHKRISAFRALQHSYLHKEESDAE | – | – | – | Equal amounts of cyclin Di-Cdk4 and cyclin D3-Cdk4 complexes, as estimated by immunoblotting of Sf9 lysates, were much less effective in lowering the cyclin E threshold for Cdk2 activation |
| cyclin D1-Cdk4 complex (baculoviral, co-infected Sf9 cells) (protein) chain 1: MEHQLLCCEVETIRRAYPDTNLLNDRVLRAMLKTEETCAPSVSYFKCVQKEIVPSMRKIVATWMLEVCEEQKCEEEVFPLAMNYLDRFLSLEPLKKSRLQLLGATCMFVASKMKETIPLTAEKLCIYTDNSIRPEELLQMELLLVNKLKWNLAAMTPHDFIEHFLSKMPEADENKQTIRKHAQTFVALCATDVKFISNPPSMVAAGSVVAAMQGLNLGSPNNFLSCYRTTHFLSRVIKCDPDCLRACQEQIEALLESSLRQAQQNVDPKATEEEGEVEEEAGLACTPTDVRDVDI chain 2: MAATRYEPVAEIGVGAYGTVYKARDPHSGHFVALKSVRVPNGGAAGGGLPVSTVREVALLRRLEAFEHPNVVRLMDVCATSRTDRDIKVTLVFEHIDQDLRTYLDKAPPPGLPVETIKDLMRQFLSGLDFLHANCIVHRDLKPENILVTSNGTVKLADFGLARIYSYQMALTPVVVTLWYRAPEVLLQSTYATPVDMWSVGCIFAEMFRRKPLFCGNSEADQLGKIFDLIGLPPEDDWPREVSLPRGAFAPRGPRPVQSVVPEMEESGAQLLLEMLTFNPHKRISAFRALQHSYLHKEESDAE | – | – | – | Equal amounts of cyclin Di-Cdk4 and cyclin D3-Cdk4 complexes, as estimated by immunoblotting of Sf9 lysates, were much less effective in lowering the cyclin E threshold for Cdk2 activation |
| Cdk4 alone (baculoviral, Sf9 lysate) (protein) MAATRYEPVAEIGVGAYGTVYKARDPHSGHFVALKSVRVPNGGAAGGGLPVSTVREVALLRRLEAFEHPNVVRLMDVCATSRTDRDIKVTLVFEHIDQDLRTYLDKAPPPGLPVETIKDLMRQFLSGLDFLHANCIVHRDLKPENILVTSNGTVKLADFGLARIYSYQMALTPVVVTLWYRAPEVLLQSTYATPVDMWSVGCIFAEMFRRKPLFCGNSEADQLGKIFDLIGLPPEDDWPREVSLPRGAFAPRGPRPVQSVVPEMEESGAQLLLEMLTFNPHKRISAFRALQHSYLHKEESDAE | – | – | Addition of cyclin D2-Cdk4 complexes, but neither subunit alone, to extracts from contact inhibited and TGF-β arrested cells allowed cyclin E to activate Cdk2 | – |
